Laboratory results published in publication PMC5146272, “Structure of the RBM7–ZCCHC8 core of the NEXT complex reveals connections to splicing factors” (Nature Communications, 2016).

B1: ZCCHC8^Pro-(GS)3-eYFP fusion protein (domain or fragment, human, UniProt Q6NZY4 285-324, looked up)
chain: RFKPGVISEELQDALGVTDKSLPPFIYRMRQLGYPPGWLK
notes: eYFP joined by a Gly-Ser linker serves as the fluorophore of the MST; source: purified; not shown: (GS)3 linker and eYFP, C-terminal, kept
B2: U8 RNA (ssRNA)
RNA: UUUUUUUU

Key:
[1] = biological target: T1, RBM7^1–137 (Z-tagged RBM7, residues 1–137) (human, UniProt Q9Y580 1-137); assay: MST; 30 nM ZCCHC8^Pro-(GS)3-eYFP constant, unlabelled RBM7 1-137 titrated from 0.2 nM to 6.0 μM; 50 mM Tris/HCl pH 7.4, 150 mM NaCl, 10 mM MgCl2, 0.05% Tween 20; temperature jump analysis; triplicates; details: both partners purified
T1 construct: source: bacterial cells, in lysate (pull-downs); purified (MST)
T1 sequence (looked up): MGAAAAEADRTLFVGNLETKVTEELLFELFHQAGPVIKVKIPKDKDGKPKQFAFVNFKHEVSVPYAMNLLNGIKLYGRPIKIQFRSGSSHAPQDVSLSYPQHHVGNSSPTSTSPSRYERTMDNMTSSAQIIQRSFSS

RBM7 1-98 (RRM) = biological target: T2, RBM7 1-98 (RRM) (Homo sapiens, UniProt Q9Y580 1-98); assay: fluorescence anisotropy; KD value only in inset of the figure, not in material; 20 mM Tris/HCl pH 7.5, 150 mM NaCl, 2 mM DTT, 20 °C, 10 nM RNA, 50 µl; details: protein: recombinant; label: 5'-6-FAM; single strand
T2 sequence: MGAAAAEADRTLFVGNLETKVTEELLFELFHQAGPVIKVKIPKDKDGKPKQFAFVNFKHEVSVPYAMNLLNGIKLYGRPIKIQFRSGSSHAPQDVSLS

[2] = biological target: T3, RBM7 1-98 (RRM);ZCCHC8Pro (proline-rich segment) (Homo sapiens;Homo sapiens, UniProt Q9Y580;Q6NZY4 1-98;285-324, |); assay: fluorescence anisotropy; affinity stated similar to RBM7 alone; KD value only in figure inset; 20 mM Tris/HCl pH 7.5, 150 mM NaCl, 2 mM DTT, 20 °C, 10 nM RNA, 50 µl; details: protein: recombinant;recombinant; tags: ;; copies: 1;1; label: 5'-6-FAM; single strand
T3 sequence 1: T2 sequence
T3 sequence 2: B1 chain

| Binder | Kd [1] [nM] | binding result (RBM7 1-98 (RRM)) | binding result [2] |
| --- | --- | --- | --- |
| B1 | 28 | – | – |
| B2 | – | binds | binds |
